The subject of assay [1] is C57BL/6 (WT) mice. Put plainly: Mouse hair cycle modulation, hair cycle score, WT mice. The assay is classed as in vivo. The following applies: topical. An excerpt:
(§1) First, we topically applied P5 and minoxidil as a positive control (Messenger & Rundegren, [2004]) on wildtype (WT) mouse. […] Overall, the hair cycle score was higher in the P5‐treated mice than vehicle‐treated mice (Fig 4B). […] Collectively, P5 induces anagen hair cycle in vivo.
(§2) For the hair cycle modulation experiment, Adipoq ^−/− (stock #008195; JAX) (Ma et al, [2002]), Adipor1 ^−/− (Yamauchi et al, [2007]; Okada‐Iwabu et al, [2013]), or C57BL/6 (KOATECH) female mice was used (Müller‐Röver et al, [2001]). They were housed (up to four animals per cage; 23 ± 2°C, 8:00–20:00, 12 h/12 h light/dark cycle). Mice were fed a standard chow diet and provided food and water ad libitum. Mice were randomly allocated and shaved dorsally at 7.5 weeks of age. Only mice in telogen were included for the further experiments (Müller‐Röver et al, [2001]). From 8 weeks of age, the shaved dorsal area was treated with vehicle control (ethanol and polyethylene glycol, 30% and 70% v/v), P5 (0.1 mM), or minoxidil (3%) every day. The mouse hair growth score (a value from 0 to 100 based on the skin pigmentation and hair shaft density) was monitored and documented at designated days with the experimenters being blind to the conditions, following a previous study (Chai et al, [2019]). A higher score corresponds to a transition from telogen to anagen. On day 35, we obtained dorsal cutaneous tissue for histological analysis: anagen induction scores (calculated using an assigned arbitrary score; telogen = 1, anagen I–VI = 2–7) (Müller‐Röver et al, [2001]).

Assay [2] deals with C57BL/6 (WT) mice. In words: Mouse hair cycle modulation, histology and anagen induction score, WT mice. The assay is classed as in vivo.
Text: as §1
(§3) Paraffin‐embedded mouse cutaneous back tissue was sectioned (4 μm thickness) and stained with hematoxylin and eosin. For IF staining, human ORS cells cultured in FiTC‐P5, sectioned paraffin‐embedded human HFs (7 μm thickness), and sectioned paraffin‐embedded mouse cutaneous dorsal tissue or human skin tissue (5 μm thickness) were incubated at 4°C overnight with the following primary antibodies diluted in the diluent reagent (Invitrogen): phospho‐AMPK (#2535, 1:100; Cell Signaling), Ki‐67 (#M7240, 1:200; Dako), versican (#ab177480, 1:200; Abcam), or AdipoR1 antibody (#ab126611, 1:200; Abcam). After three washes with PBS, the slides were incubated with the secondary Alexa Fluor 488‐labeled anti‐mouse or rabbit IgG antibody (#ab150077, #ab150113, 1:200; Invitrogen), or Alexa Fluor 594‐labeled anti‐rabbit IgG antibody (#a11012, 1:200; Invitrogen) at 25°C for 1 h. Nuclei were counterstained with 4′,6‐diamidino‐2‐phenylindole (DAPI; #D1306, 1:1,000; Invitrogen). Microscopic observations were performed with a Nikon Eclipse Ci‐L microscope (Nikon). IF intensity was observed and recorded with a Nikon Eclipse Ni‐E fluorescence microscope (Nikon).
as §2

For the next assay, the system named is human scalp HFs. The following applies: ref Won et al, [2012]; cited from earlier work. From the text:
However, it is not well understood about the underlying action mechanism of APN on hair growth promotion and how to utilize this endogenous protein as clinically applicable drug forms (Otvos, [2019]).

Assay [3] deals with AMPK phosphorylation in DP cells. In words: Western blot p-AMPK, DP cells. The assay is classed as cell-based, human. As to conditions: P5 0 - 50 μM, APN 2.5 μg/ml. From the text:
(§4) Following the confirmation of the molecular interaction between AdipoR1 and P5, we evaluated the activation of the intracellular signaling pathway by P5. We investigated whether APN treatment on ORS and DP cells could activate AMPK or ERK signaling pathways, which are previously known to be downstream effectors of AdipoR1 (Mao et al, [2006]; Deepa & Dong, [2009]; Shibata et al, [2012]). […] Next, for determination of whether both P5 and APN mediates the phosphorylation of AMPK through AdipoR1 in ORS and DP cells, the cells were transfected with AdipoR1 siRNA (Appendix Fig S1). […] Collectively, P5 activates AMPK signaling pathway through AdipoR1 in ORS and DP cells in vitro.
(§5) Human ORS and DP cells or skin tissue were lysed (RIPA lysis buffer; #20‐188; Merck Millipore). The obtained protein was then separated by 8% SDS–PAGE and transferred to a polyvinylidene fluoride membrane (Amersham). The protein transferred membranes were incubated overnight with the specific antibodies. […] Antibody‐antigen complexes detected by enhanced chemiluminescent substrate (Thermo Fisher) were captured and quantified by Amersham imager 680 systems (GE Healthcare).

The test system of assay [4] is AMPK phosphorylation through AdipoR1 in DP cells. Put plainly: Western blot p-AMPK in AdipoR1 siRNA-transfected DP cells. The assay is classed as cell-based, human.
Text: as §4
(§6) All transfections were performed using Lipofectamine 2000 following the manufacturer’s instructions (#11668019; Thermo Fisher). Human DP and ORS cells were cultured without antibiotics until reaching 50% confluency. AdipoR1 or scrambled siRNA (Bioneer) was used. The culture medium was changed 6 h after transfection, and the cells were incubated for another 24 h before subsequent analyses.
(§7) Human ORS and DP cells or skin tissue were lysed (RIPA lysis buffer; #20‐188; Merck Millipore). […] Antibody‐antigen complexes detected by enhanced chemiluminescent substrate (Thermo Fisher) were captured and quantified by Amersham imager 680 systems (GE Healthcare).
In general terms: A western blot detects proteins with antibodies after separation by electrophoresis.

Assay [5] concerns ERK phosphorylation in ORS cells. Put plainly: Western blot p-ERK1/2, ORS cells. The assay is classed as cell-based, human.
Text: as §4, §5

The subject of assay [6] is matrix cells of human HF bulbs. In words: IF staining Ki-67 of ex vivo cultured HF bulb. The following applies: APN 10μg/ml, ex vivo cultured HF bulb; individual HFs, n = 8. In kind it is cell-based.
Text: We next investigated whether P5 can reproduce the effects of APN on hair growth promotion ex vivo (Won et al, [2012]) using ex vivo human HF organ culture model. […] The Ki‐67‐positive cell portion of the matrix area in the P5‐treated HFs was higher than that in the vehicle‐treated group (Fig 3E).
as §3

Assay [7] concerns ERK phosphorylation in DP cells. Put plainly: Western blot p-ERK1/2, DP cells. The assay is classed as cell-based, human.
Text: as §4, §5

Assay [8] deals with AMPK phosphorylation through AdipoR1 in ORS cells. Put plainly: Western blot p-AMPK in AdipoR1 siRNA-transfected ORS cells. The assay is classed as cell-based, human.
Text: as §4, §6, §7

In assay [9] the test system is AMPK phosphorylation in ORS cells. In words: Western blot p-AMPK, ORS cells. In kind it is cell-based, human. As to conditions: P5 0 - 50 μM, APN 2.5 μg/ml.
Text: as §4, §5

Values joined by “and” are separate entries in the source; they are usually repeats but may differ in a detail not shown here. Identical values can stand only once.

`Nc1cc(N2CCCCC2)nc(N)[n+]1[O-]` [minoxidil, reference compound]: the “Gross morphology of dorsum” value is “obvious pigmentation and hair” in the assay with C57BL/6 (WT) mice [1] (day 14); “manifested a black hair coat” with C57BL/6 (WT) mice [1] (day 35). For the same molecule, in the assay with C57BL/6 (WT) mice [2] (H&E), the “Histological examination of HFs” value is reported as “anagen HFs were noticeable”. In addition, in the assay on C57BL/6 (WT) mice [2] (One-way ANOVA with Tukey's test), the “Anagen induction scores vs vehicle” value is listed as “significantly higher”.

B1: APN: adiponectin protein, positive control (protein, UniProt Q15848 19-244, looked up)
Adiponectin: ETTTQGPGVLLPLPKGACTGWMAGIPGHPGHNGAPGRDGRDGTPGEKGEKGDPGLIGPKGDIGETGVPGAEGPRGFPGIQGRKGEPGEGAYVYRSAFSVGLETYVTIPNMPIRFTKIFYNQQNHYDGSTGKFHCNIPGLYYFAYHITVYMKDVKVSLFKKDKAMLFTYDQYQENNVDQASGSVLLHLEVGDQVWLQVYGEGERNGLYADNDNDSTFTGFLLYHDTN
With B1, the “Hair growth ex vivo” value with human scalp HFs is recorded as “promotes hair growth ex vivo effectively”. Besides, in [3], the “Phosphorylation of AMPK, DP cells” value was “phosphorylation of AMPK was observed”. For the same molecule, in [4], the “p-AMPK intensity after AdipoR1 siRNA transfection, DP cells” value is “intensity was reduced”. The “Phosphorylation of ERK, ORS cells” value in assay [5] is “no effect on the phosphorylation of ERK”. In assay [6], the “Numbers of Ki-67-positive cells normalized to DAPI-stained cells” value was 0.29 and 0.31 and 0.23 and 0.25 and 0.22 and 0.21 and 0.35 and 0.28. Besides, in assay [7], the “Phosphorylation of ERK, DP cells” value is reported as “no effect on the phosphorylation of ERK”. For the same molecule, in assay [8], the “p-AMPK intensity after AdipoR1 siRNA transfection, ORS cells” value is reported as “intensity was reduced”. Moreover, in assay [9], the “Phosphorylation of AMPK, ORS cells” value was “phosphorylation of AMPK was observed”.

(Values after PMC8495455, “Discovery of a transdermally deliverable pentapeptide for activating AdipoR1 to promote hair growth” (EMBO Molecular Medicine, 2021).)
